Data: EP1104310B1

How the values were obtained:
Assay in all cases: cell-based or functional assay
[1] = molecular target: CCR5 expressed on HOS-CD4 cells (UniProt P51681)
[2] = molecular target: CCR4 expressed on HOS-CD4 cells (UniProt P51679)
[3] = molecular target: CXCR4 expressed on HOS-CD4 cells (UniProt P61073)
[4] = molecular target: CCR1 expressed on HOS-CD4 cells (UniProt P32246)
[5] = molecular target: CCR3 expressed on HOS-CD4 cells (UniProt P51677)
Sequence of UniProt P51677 (P51677 whole entry): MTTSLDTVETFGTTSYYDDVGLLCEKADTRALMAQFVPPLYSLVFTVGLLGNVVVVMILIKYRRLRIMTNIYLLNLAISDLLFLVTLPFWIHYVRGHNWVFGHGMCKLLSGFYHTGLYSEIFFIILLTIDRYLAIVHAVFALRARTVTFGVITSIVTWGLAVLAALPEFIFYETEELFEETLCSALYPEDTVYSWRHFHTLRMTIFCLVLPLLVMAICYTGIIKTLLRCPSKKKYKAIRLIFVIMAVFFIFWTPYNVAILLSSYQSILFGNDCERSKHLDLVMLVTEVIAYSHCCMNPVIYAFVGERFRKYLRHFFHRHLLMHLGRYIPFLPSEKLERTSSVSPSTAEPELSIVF

Sequence of UniProt P61073 (P61073 whole entry): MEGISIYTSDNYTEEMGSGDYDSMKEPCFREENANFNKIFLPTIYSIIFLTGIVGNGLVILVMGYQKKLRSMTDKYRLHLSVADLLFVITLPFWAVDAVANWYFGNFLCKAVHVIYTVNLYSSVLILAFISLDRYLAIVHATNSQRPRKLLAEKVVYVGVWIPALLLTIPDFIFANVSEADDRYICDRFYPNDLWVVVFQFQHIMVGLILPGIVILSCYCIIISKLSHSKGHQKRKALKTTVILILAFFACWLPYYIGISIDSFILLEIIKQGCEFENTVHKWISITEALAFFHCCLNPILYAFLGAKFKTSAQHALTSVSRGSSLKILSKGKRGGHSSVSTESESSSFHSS
Sequence of UniProt P51681 (P51681 whole entry): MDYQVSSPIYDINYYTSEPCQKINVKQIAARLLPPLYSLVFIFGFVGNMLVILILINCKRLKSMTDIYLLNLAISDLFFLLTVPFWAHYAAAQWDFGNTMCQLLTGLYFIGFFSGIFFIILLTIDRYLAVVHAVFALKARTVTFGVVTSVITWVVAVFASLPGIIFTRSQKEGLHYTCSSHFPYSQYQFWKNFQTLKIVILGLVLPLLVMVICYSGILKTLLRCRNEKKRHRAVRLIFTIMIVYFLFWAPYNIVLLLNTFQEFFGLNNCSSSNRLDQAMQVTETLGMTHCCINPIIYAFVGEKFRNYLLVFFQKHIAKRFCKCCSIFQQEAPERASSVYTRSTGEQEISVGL
Sequence of UniProt P32246 (P32246 whole entry): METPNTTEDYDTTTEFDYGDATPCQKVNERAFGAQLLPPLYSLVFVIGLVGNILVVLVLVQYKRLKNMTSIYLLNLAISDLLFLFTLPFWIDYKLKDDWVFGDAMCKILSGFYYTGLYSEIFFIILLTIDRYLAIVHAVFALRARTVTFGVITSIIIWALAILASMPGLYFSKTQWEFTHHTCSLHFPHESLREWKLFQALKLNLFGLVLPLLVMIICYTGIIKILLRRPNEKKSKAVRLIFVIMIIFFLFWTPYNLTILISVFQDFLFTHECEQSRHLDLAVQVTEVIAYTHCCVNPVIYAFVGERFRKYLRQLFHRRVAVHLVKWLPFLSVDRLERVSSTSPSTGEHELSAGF
Sequence of UniProt P51679 (P51679 whole entry): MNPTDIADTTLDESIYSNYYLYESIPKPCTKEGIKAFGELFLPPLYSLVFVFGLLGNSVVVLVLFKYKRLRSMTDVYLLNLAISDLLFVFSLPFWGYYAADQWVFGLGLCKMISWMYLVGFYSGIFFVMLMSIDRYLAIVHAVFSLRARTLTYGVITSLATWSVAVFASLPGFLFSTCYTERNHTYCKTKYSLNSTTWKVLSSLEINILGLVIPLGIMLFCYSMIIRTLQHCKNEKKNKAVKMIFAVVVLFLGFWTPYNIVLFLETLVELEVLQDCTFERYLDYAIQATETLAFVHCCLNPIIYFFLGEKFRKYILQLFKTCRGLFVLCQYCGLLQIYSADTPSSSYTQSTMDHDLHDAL

Substance: HIV-1 AD8 envelope, expressed on pseudovirus
- Infectivity Titer in HOS-CD4 Cells Expressing CCR5 [1]: 256 titer (1:n)
- Infectivity Titer in HOS-CD4 Cells Expressing CCR4 [2]: < 4 titer (1:n)
- Infectivity Titer in HOS-CD4 Cells Expressing CXCR4 [3]: < 4 titer (1:n)
- Infectivity Titer in HOS-CD4 Cells Expressing CCR1 [4]: < 4 titer (1:n)
- Infectivity Titer in HOS-CD4 Cells Expressing CCR3 [5]: < 4 titer (1:n)

Substance: HIV-1 NL4-3 envelope, expressed on pseudovirus
- Infectivity Titer in HOS-CD4 Cells Expressing CCR5 [1]: 32 titer (1:n)
- Infectivity Titer in HOS-CD4 Cells Expressing CCR4 [2]: < 4 titer (1:n)
- Infectivity Titer in HOS-CD4 Cells Expressing CXCR4 [3]: > 256 titer (1:n)
- Infectivity Titer in HOS-CD4 Cells Expressing CCR1 [4]: < 4 titer (1:n)
- Infectivity Titer in HOS-CD4 Cells Expressing CCR3 [5]: < 4 titer (1:n)
